Here are results for eight molecules from PMC3553216 (Biochemistry, 2013).

Where two headings read alike, the source gives them in different places.

Series [1] in a line: AUC.
Series [2] addresses full-length SaPC F403A mutant (Staphylococcus aureus). The experiment in a line: AUC.
For series [3] the target is unchanged. The experiment in a line: AUC. The source holds these as a separate data set.
Series [4] has the same target. The experiment in a line: SEC.
The target of series [5] is full-length SaPC K442E mutant (Staphylococcus aureus). The experiment in a line: AUC.
Series [6] has the same target. In words: AUC. The source holds these as a separate data set.
For series [7] the target is unchanged. The experiment in a line: SEC. Background: Size exclusion chromatography separates by hydrodynamic size, large species first.
The target of series [8] is full-length SaPC R54E mutant (Staphylococcus aureus). In words: AUC.
Series [9] shares this target. The experiment in a line: AUC. This is another data set of the same source.
For series [10] the target is unchanged. In words: SEC.
The target in series [11] is isolated BC domain of SaPC, R54E mutant (Staphylococcus aureus). In words: AUC.
Series [12] deals with the molecule itself. In words: AUC.
Series [13] deals with the molecule itself. The experiment in a line: AUC. This is another data set of the same source.

In turn, full-length SaPC F403A mutant gave a Monomer (%) in “AUC [1]” of 9%.
On to full-length SaPC F403A mutant (enzyme), for which, in [2], the Dimer (%) was found to be 2%, the Kd (commonly a measure of binding affinity in units of concentration) was 450 nM and the Tetramer (%) was 85%. Also, the dissociation constant (Kd) in [3] amounted to 11 nM. The stoichiometry N (as a rule, the number of molecules, sites or subunits per partner or assembly) in series [4] turned out to be 4.
In turn, full-length SaPC K442E mutant registered a Monomer (%) in the series “AUC [1]” of 10%.
In series [5], full-length SaPC K442E mutant (enzyme) displayed a Dimer (%) of 65% and a Kd of 820 nM. Besides, in series [6], the Kd turned out to be 840 µM. Besides, in [7], the stoichiometry N was 2.
Turning to full-length SaPC R54E mutant, the Monomer (%) in the series “AUC [1]” was found to be 4%.
With full-length SaPC R54E mutant (enzyme), in series [8], the Dimer (%) was 0%, the Kd was 530 nM and the Tetramer (%) amounted to 96%. The molecule further registered a Kd in [9] of 3 nM. In addition, in series [10], the stoichiometry N was determined as 4.
As for “isolated BC domain of SaPC, R54E mutant (domain or fragment)”, the Kd in series [11] was found to be 195 µM.

B1: wild-type full-length Staphylococcus aureus pyruvate carboxylase (enzyme, UniProt A0A0H3JRU9 1-1150, looked up)
chain: MKQIKKLLVANRGEIAIRIFRAAAELDISTVAIYSNEDKSSLHRYKADESYLVGSDLGPAESYLNIERIIDVAKQANVDAIHPGYGFLSENEQFARRCAEEGIKFIGPHLEHLDMFGDKVKARTTAIKADLPVIPGTDGPIKSYELAKEFAEEAGFPLMIKATSGGGGKGMRIVREESELEDAFHRAKSEAEKSFGNSEVYIERYIDNPKHIEVQVIGDEHGNIVHLFERDCSVQRRHQKVVEVAPSVGLSPTLRQRICDAAIQLMENIKYVNAGTVEFLVSGDEFFFIEVNPRVQVEHTITEMVTGIDIVKTQILVAAGADLFGEEINMPQQKDITTLGYAIQCRITTEDPLNDFMPDTGTIIAYRSSGGFGVRLDAGDGFQGAEISPYYDSLLVKLSTHAISFKQAEEKMVRSLREMRIRGVKTNIPFLINVMKNKKFTSGDYTTKFIEETPELFDIQPSLDRGTKTLEYIGNVTINGFPNVEKRPKPDYELASIPTVSSSKIASFSGTKQLLDEVGPKGVAEWVKKQDDVLLTDTTFRDAHQSLLATRVRTKDMINIASKTADVFKDGFSLEMWGGATFDVAYNFLKENPWERLERLRKAIPNVLFQMLLRASNAVGYKNYPDNVIHKFVQESAKAGIDVFRIFDSLNWVDQMKVANEAVQEAGKISEGTICYTGDILNPERSNIYTLEYYVKLAKELEREGFHILAIKDMAGLLKPKAAYELIGELKSAVDLPIHLHTHDTSGNGLLTYKQAIDAGVDIIDTAVASMSGLTSQPSANSLYYALNGFPRHLRTDIEGMESLSHYWSTVRTYYSDFESDIKSPNTEIYQHEMPGGQYSNLSQQAKSLGLGERFDEVKDMYRRVNFLFGDIVKVTPSSKVVGDMALYMVQNDLDEQSVITDGYKLDFPESVVSFFKGEIGQPVNGFNKDLQAVILKGQEALTARPGEYLEPVDFEKVRELLEEEQQGPVTEQDIISYVLYPKVYEQYIQTRNQYGNLSLLDTPTFFFGMRNGETVEIEIDKGKRLIIKLETISEPDENGNRTIYYAMNGQARRIYIKDENVHTNANVKPKADKSNPSHIGAQMPGSVTEVKVSVGETVKANQPLLITEAMKMETTIQAPFDGVIKQVTVNNGDTIATGDLLIEIEKATD
In the case of B1, the Kd stood at 750 ± 60 nM in the series “AUC [12]” and 8 ± 0.6 nM in “AUC [13]”.
